From patent publication US20210206865A1
One block for each binder: values may come before it.

Biological target: monkey BCMA-MMH (monkey BCMA with C-terminal myc-myc-hexahistidine tag) (monkey)
Test: SPR Biacore, 25 C, mAb captured via anti-hFc

Chain of monkey BCMA-MMH (monkey BCMA with C-terminal myc-myc-hexahistidine tag) (monkey) (chain, as listed by the source limits assumed): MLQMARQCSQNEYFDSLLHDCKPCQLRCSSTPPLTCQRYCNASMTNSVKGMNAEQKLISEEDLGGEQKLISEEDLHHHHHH

90 nM mfBCMA.mmh Bind (RU): 1.1 RU
B1: mAb16732 (REGN4514) (antibody, V domains shown)
VH: EVQLVESGGGLVQPGRSLRLSCAASGFTFDDYAMHWVRQAPGKGLEWVSGISWNSGNMGYADSVKGRFTISRDNAKNSLFLQMHSLRAEDTAFYYCAKVRLTAFDFWGQGTLVTVSS
VL: DIQMTQSPSSLSASVGDRVTITCRTSQSIGNYLNWFQQKPGKAPKLLIYTASSLQNGVPSRFTGSGSGTDFTLTISSLQPEDFVIYYCQQSFSTPYTFGQGTKLEIK

90 nM mfBCMA.mmh Bind (RU): 1.9 RU
B2: mAb16747 (REGN4515) (antibody, V domains shown)
VH: QVQLVESGGGLVKPGGSLRLSCAASGFTFSDYYISWIRQAPGKGLEWVSYISSSGSSIKYADSVKGRFTISRDNAKNSLYLQMNSLRAEDTAVYYCAREGGNYGMDVWGQGTTVTVSS
VL: DIQMTQSPSSVSASVGDRVTITCRASQGINNWLVWYQQKPGKAPKLLIYAATSLQSGVPSRFSGSGSGTDFTLTISSLQPEDFATYYCQQANSFPPTFGQGTKLEIK
